{"source": "patent US20240360227A1", "binders": {"B1": {"name": "VRDN-02011 (antibody, V domains shown)", "VH": "QVQLQESGPGLVKPSETLSLTCTVSGYSITGGYLWHWIRQPPGKGLEWIGYISYDGTNNYKPSLKDRVTISRDTSKNQFSLKLSSVTAADTAVYYCARYGRVFFDYWGQGTLVTVSS", "VL": "DIVMTQSPLSLPVTPGEPASISCRSSQSIVHSNGNTYLQWYLQKPGQSPQLLIYKVSNRLYGVPDRFSGSGSGTDFTLKISRVEAEDVGVYYCFQGSHVPWTFGQGTKVEIK"}, "B2": {"name": "VRDN-02015 (antibody, V domains shown)", "VH": "QVQLQESGPGLVKPSETLSLTCTVSGYSITGGYLWNWIRQPPGKGLEWIGYISHDGTNNYKPSLKDRVTISRDTSKNQFSLKLSSVTAADTAVYYCARYGRVFFDYWGQGTLVTVSS", "VL": "DIVMTQSPLSLPVTPGEPASISCRSSQSIVHSNGNTYLQWYLQKPGQSPQLLIYKVSNRLYGVPDRFSGSGSGTDFTLKISRVEAEDVGVYYCFQGSHVPWTFGQGTKVEIK"}, "B3": {"name": "VRDN-02012 (antibody, V domains shown)", "VH": "QVQLQESGPGLVKPSETLSLTCTVSGYSITGGYLWNWIRQPPGKGLEWIGHISYDGTNNYKPSLKDRVTISRDTSKNQFSLKLSSVTAADTAVYYCARYGRVFFDYWGQGTLVTVSS", "VL": "DIVMTQSPLSLPVTPGEPASISCRSSQSIVHSNGNTYLQWYLQKPGQSPQLLIYKVSNRLYGVPDRFSGSGSGTDFTLKISRVEAEDVGVYYCFQGSHVPWTFGQGTKVEIK"}, "B4": {"name": "VRDN-02013 (antibody, V domains shown)", "VH": "QVQLQESGPGLVKPSETLSLTCTVSGYSITGGYLWNWIRQPPGKGLEWIGYHSYDGTNNYKPSLKDRVTISRDTSKNQFSLKLSSVTAADTAVYYCARYGRVFFDYWGQGTLVTVSS", "VL": "DIVMTQSPLSLPVTPGEPASISCRSSQSIVHSNGNTYLQWYLQKPGQSPQLLIYKVSNRLYGVPDRFSGSGSGTDFTLKISRVEAEDVGVYYCFQGSHVPWTFGQGTKVEIK"}, "B5": {"name": "VRDN-02014 (antibody, V domains shown)", "VH": "QVQLQESGPGLVKPSETLSLTCTVSGYSITGGYLWNWIRQPPGKGLEWIGYIHYDGTNNYKPSLKDRVTISRDTSKNQFSLKLSSVTAADTAVYYCARYGRVFFDYWGQGTLVTVSS", "VL": "DIVMTQSPLSLPVTPGEPASISCRSSQSIVHSNGNTYLQWYLQKPGQSPQLLIYKVSNRLYGVPDRFSGSGSGTDFTLKISRVEAEDVGVYYCFQGSHVPWTFGQGTKVEIK"}}, "key": {"[1]": {"target": "Recombinant human his-tagged IGF R extracellular domain protein (human) (UniProt P08069)", "experiment": "SPR, Ab captured via anti-huIgG Fc, pH 7.4"}, "[2]": {"target": "Recombinant human his-tagged IGF R extracellular domain protein (human) (UniProt P08069)", "experiment": "SPR, Ab captured via anti-huIgG Fc, dissociation at pH 6"}}, "data": [{"binder": "B1", "values": [{"measurement": "Kd", "setting": "[1]", "result": 0.432, "unit": "nM"}, {"measurement": "koff", "setting": "[1]", "result": "4.55e-05", "unit": "s⁻¹"}, {"measurement": "kon", "setting": "[1]", "result": 105000, "unit": "M⁻¹ s⁻¹"}, {"measurement": "Kd", "setting": "[2]", "result": 0.836, "unit": "nM"}, {"measurement": "koff", "setting": "[2]", "result": "7.81e-05", "unit": "s⁻¹"}, {"measurement": "kon", "setting": "[2]", "result": 93400, "unit": "M⁻¹ s⁻¹"}]}, {"binder": "B2", "values": [{"measurement": "Kd", "setting": "[1]", "result": 0.51, "unit": "nM"}, {"measurement": "koff", "setting": "[1]", "result": "4.57e-05", "unit": "s⁻¹"}, {"measurement": "kon", "setting": "[1]", "result": 89500, "unit": "M⁻¹ s⁻¹"}, {"measurement": "Kd", "setting": "[2]", "result": 0.961, "unit": "nM"}, {"measurement": "koff", "setting": "[2]", "result": "8.79e-05", "unit": "s⁻¹"}, {"measurement": "kon", "setting": "[2]", "result": 91400, "unit": "M⁻¹ s⁻¹"}]}, {"binder": "B3", "values": [{"measurement": "Kd", "setting": "[1]", "result": 0.589, "unit": "nM"}, {"measurement": "koff", "setting": "[1]", "result": "5.41e-05", "unit": "s⁻¹"}, {"measurement": "kon", "setting": "[1]", "result": 91800, "unit": "M⁻¹ s⁻¹"}, {"measurement": "Kd", "setting": "[2]", "result": 1.01, "unit": "nM"}, {"measurement": "koff", "setting": "[2]", "result": 0.000103, "unit": "s⁻¹"}, {"measurement": "kon", "setting": "[2]", "result": 102000, "unit": "M⁻¹ s⁻¹"}]}, {"binder": "B4", "values": [{"measurement": "Kd", "setting": "[1]", "result": 0.674, "unit": "nM"}, {"measurement": "koff", "setting": "[1]", "result": "5.45e-05", "unit": "s⁻¹"}, {"measurement": "kon", "setting": "[1]", "result": 80800, "unit": "M⁻¹ s⁻¹"}, {"measurement": "Kd", "setting": "[2]", "result": 1.17, "unit": "nM"}, {"measurement": "koff", "setting": "[2]", "result": 0.000109, "unit": "s⁻¹"}, {"measurement": "kon", "setting": "[2]", "result": 93200, "unit": "M⁻¹ s⁻¹"}]}, {"binder": "B5", "values": [{"measurement": "Kd", "setting": "[1]", "result": 0.697, "unit": "nM"}, {"measurement": "koff", "setting": "[1]", "result": "6.19e-05", "unit": "s⁻¹"}, {"measurement": "kon", "setting": "[1]", "result": 88700, "unit": "M⁻¹ s⁻¹"}, {"measurement": "Kd", "setting": "[2]", "result": 1.11, "unit": "nM"}, {"measurement": "koff", "setting": "[2]", "result": 0.000153, "unit": "s⁻¹"}, {"measurement": "kon", "setting": "[2]", "result": 138000, "unit": "M⁻¹ s⁻¹"}]}]}
